The values below come from patent US20140378663A1.

The target of the assay is T1, CD20 antigen on Raji lymphoblastoid B cells (UniProt P11836).
T1 sequence (looked up): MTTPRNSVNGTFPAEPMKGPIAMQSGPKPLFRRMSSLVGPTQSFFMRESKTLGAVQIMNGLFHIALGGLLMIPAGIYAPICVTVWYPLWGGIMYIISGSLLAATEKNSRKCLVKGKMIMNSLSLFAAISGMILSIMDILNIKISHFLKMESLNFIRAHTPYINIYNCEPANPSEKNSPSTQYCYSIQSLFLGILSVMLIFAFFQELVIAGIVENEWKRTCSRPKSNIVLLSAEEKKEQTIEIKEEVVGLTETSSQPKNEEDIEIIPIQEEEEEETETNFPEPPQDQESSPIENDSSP
Briefly: flow cytometry on Raji cells. (In general: Flow cytometry measures light scatter and fluorescence of single cells or particles in a stream.)

B1: R603 chimeric anti-CD20 antibody (LFB-R603), IgG1 with wild-type Fc (antibody, INN chains, looked up, V domains shown, part only)
VH: QAYLQQSGAELVRPGASVKMSCKASGYTFTSYNMHWVKQTPRQGLEWIGGIYPGNGDTSYNQKFKGKATLTVGKSSSTAYMQLSSLTSEDSAVYFCARYDYNYAMDYWGQGTSVTVSS
VL: QIVLSQSPAILSASPGEKVTMTCRASSSVSYMHWYQQKPGSSPKPWIYATSNLASGVPARFSGSGSGTSYSFTISRVEAEDAATYYCQQWTFNPPTFGGGTRLEIK
modifications: IgG1
Regarding B1, the Ag binding MFI (Arbitrary Unit) was determined as 123.
